From publication doi:10.1101/2020.03.05.978023

How the values were obtained:
[1] = target: Human DND1 (Dead end protein homolog 1) RRM2 domain (139-217) (human); assay: SEC
[2] = target: Human DND1 (Dead end protein homolog 1) RRM2 domain (139-217) (human); assay: crystal structure

stoichiometry N [1]: 2 | stoichiometry N [2]: 2
Substance: Human DND1 (Dead end protein homolog 1) RRM2 domain (139-217) (domain or fragment)
